From US20110313230A1

Assays:
wild-type EGFR (human) [1] = biological target: wild-type EGFR (human) (UniProt P00533); assay: immunohistochemistry, glioblastoma pre-typed: EGFR amplified, no de2-7 EGFR expression
de2-7 EGFR (human) = de2-7 EGFR (human) (UniProt P00533); assay: immunohistochemistry, glioblastoma pre-typed: EGFR amplified, de2-7 EGFR expressed
wild-type EGFR (human) [2] = biological target: wild-type EGFR (human) (UniProt P00533); assay: Scatchard, 125I-528 on A431 cells

percent of immunoreactive cells (wild-type EGFR (human) [1]): > 75%
percent of immunoreactive cells (de2-7 EGFR (human)): > 75%
receptors per cell (receptors per cell) (wild-type EGFR (human) [2]): 2e+06
Substance: mAb528 (antibody)
